Reference: IntAct's records for PubMed 30488537

B1: Prelamin-A/C (Homo sapiens), P02545 (parent)
chain: METPSQRRATRSGAQASSTPLSPTRITRLQEKEDLQELNDRLAVYIDRVRSLETENAGLRLRITESEEVVSREVSGIKAAYEAELGDARKTLDSVAKERARLQLELSKVREEFKELKARNTKKEGDLIAAQARLKDLEALLNSKEAALSTALSEKRTLEGELHDLRGQVAKLEAALGEAKKQLQDEMLRRVDAENRLQTMKEELDFQKNIYSEELRETKRRHETRLVEIDNGKQREFESRLADALQELRAQHEDQVEQYKKELEKTYSAKLDNARQSAERNSNLVGAAHEELQQSRIRIDSLSAQLSQLQKQLAAKEAKLRDLEDSLARERDTSRRLLAEKEREMAEMRARMQQQLDEYQELLDIKLALDMEIHAYRKLLEGEEERLRLSPSPTSQRSRGRASSHSSQTQGGGSVTKKRKLESTESRSSFSQHARTSGRVAVEEVDEEGKFVRLRNKSNEDQSMGNWQIKRQNGDDPLLTYRFPPKFTLKAGQVVTIWAAGAGATHSPPTDLVWKAQNTWGCGNSLRTALINSTGEEVAMRKLVRSVTVVEDDEDEDGDDLLHHHHGSHCSSSGDPAEYNLRSRTVLCGTCGQPADKASASGSGAQVGGPISSGSSASSVTVTRSYRSVGGSGGGSFGDNLVTRSYLLGNSSPRTQSPQNCSIM
partner: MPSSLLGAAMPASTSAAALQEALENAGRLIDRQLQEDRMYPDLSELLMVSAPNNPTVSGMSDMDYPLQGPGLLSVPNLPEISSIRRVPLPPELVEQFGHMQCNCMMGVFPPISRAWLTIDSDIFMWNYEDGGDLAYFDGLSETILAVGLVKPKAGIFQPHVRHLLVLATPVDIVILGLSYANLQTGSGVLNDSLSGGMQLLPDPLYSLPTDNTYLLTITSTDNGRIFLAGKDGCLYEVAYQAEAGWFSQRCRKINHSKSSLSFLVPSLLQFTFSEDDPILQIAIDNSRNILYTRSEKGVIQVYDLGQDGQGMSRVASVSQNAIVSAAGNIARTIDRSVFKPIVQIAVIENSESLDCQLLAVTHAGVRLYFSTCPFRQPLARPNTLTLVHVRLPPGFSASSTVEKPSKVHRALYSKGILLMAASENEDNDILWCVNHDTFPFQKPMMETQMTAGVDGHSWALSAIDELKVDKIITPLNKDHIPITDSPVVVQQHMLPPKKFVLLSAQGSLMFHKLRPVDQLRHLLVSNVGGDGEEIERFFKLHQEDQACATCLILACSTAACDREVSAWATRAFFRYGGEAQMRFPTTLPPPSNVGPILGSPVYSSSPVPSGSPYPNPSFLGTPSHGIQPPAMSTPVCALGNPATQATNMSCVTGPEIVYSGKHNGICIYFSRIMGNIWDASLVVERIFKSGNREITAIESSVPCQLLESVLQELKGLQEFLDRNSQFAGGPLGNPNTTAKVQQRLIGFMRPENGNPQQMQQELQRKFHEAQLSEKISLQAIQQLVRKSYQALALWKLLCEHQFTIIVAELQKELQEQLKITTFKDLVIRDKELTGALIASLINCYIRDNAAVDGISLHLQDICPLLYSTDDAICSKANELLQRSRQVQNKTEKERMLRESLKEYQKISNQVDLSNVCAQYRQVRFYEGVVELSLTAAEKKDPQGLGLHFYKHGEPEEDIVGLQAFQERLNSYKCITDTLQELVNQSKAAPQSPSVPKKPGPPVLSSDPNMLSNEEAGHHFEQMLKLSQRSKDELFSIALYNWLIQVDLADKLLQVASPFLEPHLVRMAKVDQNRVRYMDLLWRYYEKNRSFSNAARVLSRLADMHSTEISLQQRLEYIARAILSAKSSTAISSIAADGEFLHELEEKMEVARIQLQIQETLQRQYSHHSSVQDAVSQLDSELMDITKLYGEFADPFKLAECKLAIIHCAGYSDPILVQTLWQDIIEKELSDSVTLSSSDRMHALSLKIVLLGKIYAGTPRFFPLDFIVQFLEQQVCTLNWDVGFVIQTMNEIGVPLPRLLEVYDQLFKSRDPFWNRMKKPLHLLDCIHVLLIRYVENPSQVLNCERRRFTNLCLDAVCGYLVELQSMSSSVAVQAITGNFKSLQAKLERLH

Variants of: B1
Details: with nu155_human NUP155, O75694

Row | effect of a mutation on the interaction | Variant
1 | decreasing interaction strength | R399C

Variants of: B1
Details: with nu155_human NUP155, O75694
Remark: another data set of the same source

Row | effect of a mutation on the interaction | Variant
2 | with no effect | R399C
